Assay [1] deals with SARS-CoV-2 euvirus S protein (SARS-CoV-2, UniProt P0DTC2 14-1273). Description: cell-based or functional assay.
Assay [2] concerns the target Biotin-ncov RBD (KACTUS, COV-VM4BDB) (SARS-CoV-2, UniProt P0DTC2 319-537). Description: ELISA blocking assay: antibody titrated from 900 nM, blocks biotin-RBD (200 ng/mL) binding to coated ACE2-Fc.

B1: P10-20 (antibody, V domains shown)
VH: QVQLVESGGGLVKPGGSLRLSCAASGFTFSDYYMSWIRQAPGKGLEWVSYISISSTYTNYADSVKGRFTISRDNAKNSLYLQMNSLRAEDTAVYYCVIAAAGKGHYYYGMDVWGQGTTVTVSS
VL: not shown
notes: also called candidate antibody molecule P10-20
With B1, in assay [1], the “EC50, neutralization of SARS-CoV-2 euvirus infection of VERO-E6 cells (CPE, day 4)” value (from here on “EC50, neutralization”) is roughly 0.0752 µg/mL. This molecule displayed an IC50 in assay [2] of 0.957 nM.

B2: P15-16 (antibody, V domains shown)
VH: QVQLVESGGGLVQPGRSLTLSCAASGFTFDDYAMHWVRQAPGKGLEWVSGISWNSGTIDYADSVKGRFTISRDNAKNSLYLQMNSLRAEDTALYYCATLPRERAYSGYDRIFYTIDVWGQGTTVTVSS
VL: not shown
notes: also called candidate antibody molecule P15-16
For B2, in assay [2], the IC50 turned out to be 1.39 nM.

B3: P23-29 (antibody, V domains shown)
VH: QVQLQESGPGLVKPSETLSLTCTVSGDSISSSTYYWGWIRQPPGKGLEWIGSMYYGRSTYYNPSLKSRVTVSVDTSKNQLSLKVSSVTAADTAVYYCARHLGGVDYWGQGTLVTVSS
VL: DIQMTQSPSSLSASVGDRVTITCRASQGISNSLAWYQQEPGKAPKLLLYAASTLESGVPSRFSGSGSGADSTLTISSLQPEDFATYYCQQYYSASALTFGGGTKVEIK
notes: also called candidate antibody molecule P23-29
As to B3, the “EC50, neutralization” value in assay [1] came out at 0.0488 µg/mL. The same molecule returned an IC50 in assay [2] of 1.2 nM.

B4: P3-11 (antibody, V domains shown)
VH: QVQLVESGGGLVQPGGSLRLSCAASGITVSSNYMSWVRQAPGKGLEWVSVIYSGGSTFYADPVKGRLTISRDNSKNTLYLQMNSVRVEDTAVYYCARGEGWELPFDYWGQGALVTVSS
VL: QSALTQPPSASGSPGQSVTISCTGTSSDVGGNKYVSWYQQHPGKAPKLIIYEVSKRPSGVPDRFSGSKSGNTASLTVSGLQAEDEADYHCSSYAGSNNLVFGGGTKLTVL
notes: also called candidate antibody molecule P3-11
For B4, in assay [1], the “EC50, neutralization” value stood at 0.195 µg/mL. For the same molecule, in assay [2], the IC50 was found to be 1.1 nM.

B5: P14-37 (antibody, V domains shown)
VH: EVQLVESGGGLVKPGGSLRLSCAASGFTFSNAWMSWVRQAPGKGLEWVGRIKRNSDGGTTDHAAPVTGRFIISRDDSKNTLYLQMNSLRTEDTAVYYCTTDLDTVVRRVVITDHDAFDIWGQGTMVTVSS
VL: DIQMTQSPSSLSASVGDRVTITCRASQSISSFLNWYQQKAGKAPKLLIYAASSLQSGVPSRFSGSGSGTDFSLTISNLQPEDFATYYCQQSYSTPSITFGQGTRLEIK
notes: also called candidate antibody molecule P14-37
In assay [2], B5 returned an IC50 of 1.14 nM.

B6: P5-22 (antibody, V domains shown)
VH: EVQLVESGGGLVKPGGSLRLSCAASGFTFRDYDIIWIRQAPGKGLEWVSYISRSGSTIYYSDSVRGRFTISRDNAKNSVYLQMNSLRAEDTAVYYCARDFGFEGPRMDVWGQGTTVTVSS
VL: DIQMTQSPSSLSASVGDRVTITCQASQDIKNYLNWYQQKPGKAPKLLIYDASNLETGVPSRFSGSGSGTDFTFTISSLQPEDIATYYCQQFDNLPITFGQGTRLEIK
notes: also called candidate antibody molecule P5-22
Consider B6, for which the “EC50, neutralization” value in assay [1] turned out to be 0.00657 µg/mL. The molecule further displayed an IC50 in assay [2] of 1.08 nM.

B7: P14-44 (antibody, V domains shown)
VH: QVQLVQSGAEVKKPGASVKVSCKASGYIFTSYSMHWVRQAPGQGLEWMGTIKPSDDSTNYAQKFQGRVSMTRDTSTSTVYMELSSLRYEDTAVYYCAREARGYYDRSGYYHPGYFDYWGQGTLVTVSS
VL: QSVLTQPASVSGSPGQSITISCTGTSSDVGGYNFVSWYQQHPGKAPKLMIYEVSDRPSGVSSRFSGSKSGNTASLTISGLQAEDEADYYCFSYTTSTTWVFGGGTKLTVL
notes: also called candidate antibody molecule P14-44
Consider B7, for which the “EC50, neutralization” value in assay [1] was 0.708 µg/mL. The IC50 in assay [2] came out at 0.863 nM.
